In PMC4137956 (Immunology, 2014):

Key:
[1] = biological target: T1, C57BL/6 mouse SIRPα, N-terminal domain (d1) (mouse, biotin (on the biotinylation sequence)); test: SPR; biotinylated SIRPα variants bound to streptavidin immobilised on a BIAcore CM5 chip, BIAcore 3000, 37°; dilutions of monomeric recombinant CD47 extracellular domain passed over; affinity from equilibrium binding; conditions: one partner purified
T1 sequence (P97797 whole entry, looked up): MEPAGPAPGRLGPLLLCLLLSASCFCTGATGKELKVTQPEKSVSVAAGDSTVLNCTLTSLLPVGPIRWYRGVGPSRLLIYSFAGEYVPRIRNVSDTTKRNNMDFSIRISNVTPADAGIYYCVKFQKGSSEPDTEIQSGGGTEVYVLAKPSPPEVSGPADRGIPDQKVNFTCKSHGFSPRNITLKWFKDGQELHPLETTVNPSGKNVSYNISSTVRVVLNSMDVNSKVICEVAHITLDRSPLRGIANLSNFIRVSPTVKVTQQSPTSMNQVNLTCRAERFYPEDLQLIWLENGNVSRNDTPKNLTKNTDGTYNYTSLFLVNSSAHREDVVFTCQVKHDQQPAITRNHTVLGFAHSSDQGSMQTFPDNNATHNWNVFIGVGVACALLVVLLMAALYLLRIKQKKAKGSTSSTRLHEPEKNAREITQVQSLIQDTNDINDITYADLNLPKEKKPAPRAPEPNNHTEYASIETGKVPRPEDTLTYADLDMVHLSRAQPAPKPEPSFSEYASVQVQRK

[2] = biological target: T2, 129 mouse SIRPα, three extracellular IgSF domains (3d) (mouse, UniProt P97797 32-369, biotin (on the biotinylation sequence)); test: as above; conditions: one partner purified
T2 sequence (looked up): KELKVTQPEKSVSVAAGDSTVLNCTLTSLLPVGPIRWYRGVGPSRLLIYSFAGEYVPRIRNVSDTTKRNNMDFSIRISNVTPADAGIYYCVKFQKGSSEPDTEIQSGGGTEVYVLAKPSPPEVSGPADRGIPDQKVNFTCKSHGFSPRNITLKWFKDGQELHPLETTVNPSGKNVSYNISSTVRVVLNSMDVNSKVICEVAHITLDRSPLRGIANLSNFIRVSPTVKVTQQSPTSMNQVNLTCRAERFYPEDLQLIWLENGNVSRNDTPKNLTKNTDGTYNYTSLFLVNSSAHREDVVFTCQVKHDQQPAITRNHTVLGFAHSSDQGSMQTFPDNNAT

B1: mouse CD47 IgSF domain, monomeric recombinant extracellular domain (domain or fragment)
chain: QLLFSNVNSIEFTSGNETVVIPCIVRNVEAQSTEEMFVKWKLNKSYIFIYDGNKNSTTTDQNFTSAKISVSDLINGIASLKMDKRDAMVGNYTCEVTELSREGKTVIELKNRTVSWFSPNE
Kd [1]: 5.3 µM | Kd [2]: 2.5 µM
